Experimental data published in patent US10450368 (DUKE UNIVERSITY, dated 2019).

What was measured:
[1] = biological target: CH505.TF gp120 delta371I; experiment: direct-binding ELISA (OD450), panel 'CH505.TF gp120 delta371I'
[2] = biological target: CH505w136.B18D8gp120; experiment: ELISA
[3] = biological target: T1, CH505.w30.12D8gp120; experiment: ELISA
T1 construct: also called CH505w30.12 gp120

[4] = biological target: T2, CH505w030.20D8gp120/293F; experiment: ELISA
T2 construct: also called CH505w30.20 gp120

[5] = biological target: T3, SSA; experiment: AtheNA, Ab 25 ug/ml
T3 construct: also called SSA (Ro)
Text: (§1) AtheNA Multi-Lyte ANA Plus Test System is one such assay. This is luminex-based assay, which is also used to screen patient sera.

[6] = biological target: T4, RNP (ribonucleoprotein); experiment: AtheNA, Ab 25 ug/ml
T4 construct: Protein-RNA complex
Text: as §1

[7] = biological target: T5, Sm (Smith antigen); experiment: AtheNA, Ab 25 ug/ml
T5 construct: Protein complex
Text: as §1

[8] = biological target: T6, Centromere B (UniProt P07199 1-599); experiment: AtheNA, Ab 25 ug/ml
T6 construct: also called Cent B
T6 sequence: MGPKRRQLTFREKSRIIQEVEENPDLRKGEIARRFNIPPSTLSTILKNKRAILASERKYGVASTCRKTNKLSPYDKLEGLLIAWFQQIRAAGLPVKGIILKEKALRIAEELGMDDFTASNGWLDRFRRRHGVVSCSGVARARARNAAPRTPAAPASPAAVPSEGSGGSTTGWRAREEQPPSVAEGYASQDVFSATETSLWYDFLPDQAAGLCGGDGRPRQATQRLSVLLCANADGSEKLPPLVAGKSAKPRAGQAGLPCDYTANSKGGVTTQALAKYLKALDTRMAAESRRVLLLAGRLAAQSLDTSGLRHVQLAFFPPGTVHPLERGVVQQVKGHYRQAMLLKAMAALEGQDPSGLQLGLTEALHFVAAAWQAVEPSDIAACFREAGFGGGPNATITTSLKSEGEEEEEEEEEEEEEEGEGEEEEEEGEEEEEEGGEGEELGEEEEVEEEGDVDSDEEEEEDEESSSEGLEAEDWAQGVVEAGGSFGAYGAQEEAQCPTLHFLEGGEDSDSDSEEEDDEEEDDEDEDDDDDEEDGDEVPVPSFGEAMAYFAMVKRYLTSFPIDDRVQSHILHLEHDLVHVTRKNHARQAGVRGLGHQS
Text: as §1

[9] = biological target: T7, Histones; experiment: AtheNA, Ab 25 ug/ml
T7 construct: Mixture of proteins
Text: as §1

[10] = biological target: T8, CH505w020.14D8gp120; experiment: ELISA
T8 construct: also called CH505w20.14 gp120

[11] = biological target: CH0505_CON D7gp120/293i; experiment: ELISA
[12] = biological target: CH505.M9D8gp120/293F; experiment: ELISA
[13] = biological target: CH505.M7D8gp120/293F; experiment: ELISA
[14] = biological target: CH505.M5D8gp120293F; experiment: ELISA
[15] = biological target: T9, CH505.TF mutant gp120 M8 (HIV-1); experiment: ELISA
T9 construct: domain: gp120

[16] = biological target: CH505.M11D8gp120/293F; experiment: ELISA
[17] = biological target: T10, CH505.TF mutant gp120 M6 (HIV-1); experiment: ELISA
T10 construct: domain: gp120

[18] = biological target: T11, CH505.TF mutant gp120 M20 (HIV-1); experiment: ELISA
T11 construct: domain: gp120

[19] = biological target: CH505.M19D8gp120; experiment: ELISA
[20] = biological target: CH505.M10D8gp120; experiment: ELISA
[21] = biological target: CH505.M21D8gp120/293F; experiment: ELISA
[22] = biological target: T3, SSA; experiment: AtheNA, Ab 50 ug/ml
Text: as §1

[23] = biological target: T4, RNP (ribonucleoprotein); experiment: AtheNA, Ab 50 ug/ml
Text: as §1

[24] = biological target: T5, Sm (Smith antigen); experiment: AtheNA, Ab 50 ug/ml
Text: as §1

[25] = biological target: T6, Centromere B; experiment: AtheNA, Ab 50 ug/ml
Text: as §1

[26] = biological target: T7, Histones; experiment: AtheNA, Ab 50 ug/ml
Text: as §1

[27] = biological target: T10, CH505.TF mutant gp120 M6; experiment: direct-binding ELISA (OD450), panel 'CH505.TF gp120 M6'
[28] = biological target: T3, SSA; experiment: AtheNA, Ab 12.5 ug/ml
Text: as §1

[29] = biological target: T4, RNP (ribonucleoprotein); experiment: AtheNA, Ab 12.5 ug/ml
Text: as §1

[30] = biological target: T5, Sm (Smith antigen); experiment: AtheNA, Ab 12.5 ug/ml
Text: as §1

[31] = biological target: T6, Centromere B; experiment: AtheNA, Ab 12.5 ug/ml
Text: as §1

[32] = biological target: T7, Histones; experiment: AtheNA, Ab 12.5 ug/ml
Text: as §1

[33] = biological target: T3, SSA; experiment: AtheNA, Ab 6.25 ug/ml
Text: as §1

[34] = biological target: T4, RNP (ribonucleoprotein); experiment: AtheNA, Ab 6.25 ug/ml
Text: as §1

[35] = biological target: T5, Sm (Smith antigen); experiment: AtheNA, Ab 6.25 ug/ml
Text: as §1

[36] = biological target: T6, Centromere B; experiment: AtheNA, Ab 6.25 ug/ml
Text: as §1

[37] = biological target: T7, Histones; experiment: AtheNA, Ab 6.25 ug/ml
Text: as §1

[38] = biological target: Con S gp120; experiment: direct-binding ELISA (OD450), panel 'Con S gp120'

B1: CH491 (antibody, V domains shown)
VH: QVQLVQSGAAVKRPGASVTISCRASGYTFTTYYIHWVRQAPGQGLELMGWINPRGGRTDYSYRFEDRVSMYRDTSMSIVYMDLRNLKSADTAVYYCVRNVGTSGSLLHYDFWGQGSLVTVSS
VL: EIVLTQSPATLSVSPGERVTLSCRASQSVRNNLAWYRQKRGQAPRLLIYGASTRATGIPARFSGSGSGTEFTLTISSMQSEDFAVYYCQQYNNWWTFGQGTKVEIK
notes: also called CH235.7; DH491
EC50 (read off the curve) [1]: ~8 µg/mL | LogAUC [2]: 3.53 | LogAUC [3]: 3.89 | LogAUC [4]: 8.82 | AtheNA signal [5]: 44 | AtheNA signal [6]: 30 | AtheNA signal [7]: 4 | AtheNA signal [8]: 45 | AtheNA signal [9]: 44 | LogAUC [10]: 9.35 | LogAUC [11]: 9.64 | LogAUC [12]: 0 | LogAUC [13]: 0 | LogAUC [14]: 10.6 | LogAUC [15]: 0 | LogAUC [16]: 6.75 | LogAUC [17]: 9.21 | LogAUC [18]: 0 | LogAUC [19]: 6.61 | LogAUC [20]: 10.6 | LogAUC [21]: 0 | AtheNA signal [22]: 68 | AtheNA signal [23]: 43 | AtheNA signal [24]: 6 | AtheNA signal [25]: 54 | AtheNA signal [26]: 59 | EC50 (read off the curve) [27]: ~0.2 µg/mL | AtheNA signal [28]: 28 | AtheNA signal [29]: 24 | AtheNA signal [30]: 3 | AtheNA signal [31]: 34 | AtheNA signal [32]: 34 | AtheNA signal [33]: 21 | AtheNA signal [34]: 18 | AtheNA signal [35]: 4 | AtheNA signal [36]: 26 | AtheNA signal [37]: 26 | EC50 (read off the curve) [38]: ~0.05 µg/mL
